From US20030008355A1 (published 2003)

T1: carcinoembryonic antigen (CEA) (UniProt P06731 35-685, limits assumed)
T1 construct: Antigen coated on microtitre plates
T1 sequence (looked up): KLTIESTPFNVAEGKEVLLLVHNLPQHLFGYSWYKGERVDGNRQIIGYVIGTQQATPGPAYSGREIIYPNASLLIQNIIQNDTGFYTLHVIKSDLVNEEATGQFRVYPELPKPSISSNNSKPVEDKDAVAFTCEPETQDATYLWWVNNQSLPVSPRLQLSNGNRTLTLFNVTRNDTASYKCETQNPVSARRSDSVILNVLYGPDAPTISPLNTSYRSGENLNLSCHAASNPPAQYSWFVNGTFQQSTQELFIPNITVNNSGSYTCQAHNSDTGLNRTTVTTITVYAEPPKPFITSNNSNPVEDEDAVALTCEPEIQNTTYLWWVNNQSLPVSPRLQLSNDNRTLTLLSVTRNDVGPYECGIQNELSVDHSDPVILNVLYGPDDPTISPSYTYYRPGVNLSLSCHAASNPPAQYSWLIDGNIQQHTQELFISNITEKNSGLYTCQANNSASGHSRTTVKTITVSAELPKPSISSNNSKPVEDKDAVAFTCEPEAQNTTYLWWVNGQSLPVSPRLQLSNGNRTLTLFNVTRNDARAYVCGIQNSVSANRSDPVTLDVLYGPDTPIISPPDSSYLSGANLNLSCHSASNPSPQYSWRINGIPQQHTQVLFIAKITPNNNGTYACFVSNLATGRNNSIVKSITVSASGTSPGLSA


Experiments:
[1] = target: carcinoembryonic antigen (CEA) (UniProt P06731); assay: acid-wash EIA on CEA-coated plates, citrate pH 2.5, 1 h 37 C
[2] = target: T1, carcinoembryonic antigen (CEA); assay: as above
Procedure: (§1) Carcinoembryonic antigen (CEA)-coated microtitre plates were prepared as described previously. Single-chain Fv samples (6H9) were diluted to a range of concentrations between 1 ng/ml and 100 ng/ml in PBS at pH 7.2 containing 1% bovine serum albumin (BSA). 100 μl samples were added to the microtitre plate wells and incubated for 1 hour at 37° C. The plates were then washed, 200 μl per well of citrate added, and the plates incubated for 1 hour at 37° C. In this case, the acid preparations were made using a stock solution of 100 mM citrate diluted to pH values of 4.0, 3.5, 3.0, 2.5 and 2.0 in the reaction mixture. PBS at pH 7.2 was used as a reference control. The plates were then washed and 100 μl per well of mouse anti-tetra-histidine antibody (Qiagen) (100 ng/ml diluted in PBS at pH 7.2 with 1% BSA) added and incubated for 1 hour at 37° C. […] The plates were then washed, treated with PNPP as described previously and the absorbance measured using a spectrophotometer at 405 nm.
(§2) As a control for acid resistance, sFv samples were incubated with PBS at pH 7.2 to generate an EIA response curve for the SFv samples. In the linear region, a concentration of 10-20 ng/ml of the SFv sample gave an absorbance (A₄₀₅) of 1.0-1.5 and was therefore used to determine the amount of antibody bound in the acid washed samples as a percentage of the amount bound in the reference sample.

[3] = target: T1, carcinoembryonic antigen (CEA); assay: acid-wash EIA on CEA-coated plates, citrate pH 3.5, 1 h 37 C
Procedure: as §1, §2

[4] = target: T1, carcinoembryonic antigen (CEA); assay: acid-wash EIA on CEA-coated plates, citrate pH 2.0, 1 h 37 C
Procedure: as §1, §2

[5] = target: T1, carcinoembryonic antigen (CEA); assay: acid-wash EIA on CEA-coated plates, HCl pH 2, 1 h 37 C, against standard EIA
Procedure: Maxisorb assay plates (NUNC) were coated with CEA (0.4 μg/ml in phosphate-buffered saline at pH 7.2), 100 μl per well and left overnight at 4° C. The plates were then washed three times using phosphate buffered saline at pH 7.2 with 0.01% Tween 20 detergent. Any remaining reactive sites on the plates were blocked by the addition of 200 μl per well of 0.2% fat-free milk protein in PBS at pH 7.2 at 37° C. for ½ hour. The plates were then washed in PBS as described above and 45 μl of the antibody samples were added to the wells of the plates. The samples were incubated for one hour at 37° C. and then washed as described previously. Bound antibody was detected using alkaline phosphatase-conjugated donkey anti-sheep antibody (Sigma A5187 diluted 1/5000 in PBS at pH 7.2 with 1% BSA). The plates were then washed and 100 μl per well of PNPP (Sigma N2770) solution was added. Absorbance was measured using a spectrophotometer at 405 nm with phosphate buffered saline as a control.
Coating and binding of antibody samples was as described for the standard EIA above. However, after incubation with the antibody samples, the plates were washed and 200 μl per well of HCl (10 mM Stock solution) at pH 2 was added for one hour at 37° C. After three washes the antibody remaining bound to antigen was detected using alkaline phosphatase-conjugated donkey anti-sheep antibody and PNPP as described above. […]

Molecule | percent antigen binding retained at pH 2.5 relative to pH 7.2 [1] | percent antigen binding retained at pH 2.5 relative to pH 7.2 [2] | percent antigen binding retained at pH 3.5 relative to pH 7.2 [3] | percent antigen binding retained at pH 2.0 relative to pH 7.2 [4] | retention of binding in acid-washed EIA (pH 2) relative to non-acid washed EIA [5]
mouse-derived anti-carcinoembryonic antigen whole antibody A5B7 (antibody, from another filing, V domains shown) VH: EVKLVESGGGLVQPGGSLRLSCATSGFTFTDYYMNWVRQPPGKALEWLGFIGNKANGYTTEYSASVKGRFTISRDKSQSILYLQMNTLRAEDSATYYCTRDRGLRFYFDYWGQGTTLTVSS VL: QTVLSQSPAILSASPGEKVTMTCRASSSVTYIHWYQQKPGSSPKSWIYATSNLASGVPARFSGSGSGTSYSLTISRVEAEDAATYYCQHWSSKPPTFGGGTKLEIK | < 5% |  |  |  | 
6H9 whole antibody (sheep monoclonal antibody secreted by hybridoma 6H9) (antibody, V domains shown, Whole sheep monoclonal antibody) VH: QVQLQESGPSLVKPSQTLSLTCTVSGFSLTKYGVSWVRQAPGKALEWLGGVSSGALTAYNTALQSRLSVTRDTSKSQFSLSLSSVTTEDTAIYYCAKSVNGDSVPYGLDYWSPGLLLTVSS VL: QDVLTQPSSVSGSLGQRVSITCSGSSSNIGGNAYVGWYQQVPGSAPRLLISATTDRASGIPDRFSGSRSGNTATLTISSLQAEDEADYYCASYQSTYSGVFGSGTRLTVLG |  | > 60% | > 70% | > 50% | > 50%

Results, then the molecule that gave them:

percent antigen binding retained at pH 2.5 relative to pH 7.2 [1] | percent antigen binding retained at pH 2.5 relative to pH 7.2 [2] | percent antigen binding retained at pH 3.5 relative to pH 7.2 [3] | percent antigen binding retained at pH 2.0 relative to pH 7.2 [4] | retention of binding in acid-washed EIA (pH 2) relative to non-acid washed EIA [5] | Molecule
< 5% |  |  |  |  | mouse-derived anti-carcinoembryonic antigen single-chain Fv MFE (scFv)
 | > 60% | > 70% | > 50% |  | 6H9 single-chain Fv (scFv, VH-(Gly4Ser)3-VL with C-terminal hexa-histidine tag, expressed in E. coli HB 2151; also called 6H9 SFv; sFv) scFv: QVQLQESGPSLVKPSQTLSLTCTVSGFSLTKYGVSWVRQAPGKALEWLGGVSSGALTAYNTALQSRLSVTRDTSKSQFSLSLSSVTTEDTAIYYCAKSVNGDSVPYGLDYWSPGLLLTVSSGGGGSGGGGSGGGGSQDVLTQPSSVSGSLGQRVSITCSGSSSNIGGNAYVGWYQQVPGSAPRLLISATTDRASGIPDRFSGSRSGNTATLTISSLQAEDEADYYCASYQSTYSGVFGSGTRLTVLGHHHHHH
